In the supplement of paper PMC12042874:
± gives the uncertainty stated by the source.

Test: amyloid nucleation score (Sup35N fusion, yeast selection) (log enrichment); library NNK1; higher = more nucleation; inactive = no reads after selection
How it was run: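 Random libraries were run with three technical output replicates. In each, psi-negative yeast expressing Sup35N fused to peptides of 20 random codons were induced 24 hours with 100 μM copper sulfate and grown 7 days at 30°C on medium lacking adenine and uracil, and input and output plasmid inserts were Illumina-sequenced. The nucleation score is the DiMSum log enrichment of output over input reads, centred on the mode score of non-aggregating sequences, and sequences under 100 input reads were excluded.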

Row | Substance | amyloid nucleation score
1 | WWALIHRPMVRVLGVQRVD | -0.297 ± 0.88
2 | LFHANQKHAGWSRASTLEAC | -0.954 ± 0.54
3 | GKDLDMRRLWFGPAGIWWSK | 0.006 ± 0.59
4 | KFVHNYSLKYIKGVVSCQFL | 0.727 ± 0.37
5 | LKMFSRPCVMIKNRTGVR | 0.452 ± 0.33
6 | SEYAVNSGSITFFIHAVWCW | 0.349 ± 0.26
7 | LFLKRGPSCTCLLRKSTIEH | 0.182 ± 0.69
8 | SVLNNLAAPDKARLRPCNWV | 0.379 ± 0.54
9 | IDGLNNYTSYNGTR | -0.219 ± 0.62
10 | DWVELR | -0.101 ± 0.86
11 | VCIIIVYRIYLSYMCPISY | -0.463 ± 0.37
12 | HFFDITLKADNSIILSLSKS | 6.549 ± 0.057
13 | RPLFIMSLFRGWRRIKLHGS | -0.527 ± 0.49
14 | SWPSPGVRQEQNCWCTRTFV | inactive
15 | LLRWFALGTYVSGWRWDERR | -0.179 ± 0.32
16 | NCSGSRLFLMSLSL | 6.52 ± 0.066
17 | LSMGLR | 0.388 ± 0.68
18 | NRIRRWWTFRVLGDSQKCVD | 0.411 ± 1
19 | YVMAVI | 1.64 ± 0.5
20 | NLRLAWRGQTVCRETHKRPF | 2.37 ± 0.13
21 | CFVFLFFVPLWSRNRGEYMY | -0.937 ± 0.68
22 | YVIEIMISHVPAIWRGYTCS | 0.554 ± 0.71
23 | KASMMPSDSSCLI | 0.911 ± 0.34
24 | TNGLCFI | -0.833 ± 0.74
25 | KLIVVSLIRDMQSNV | -0.059 ± 0.27

Row | Substance | amyloid nucleation score
26 | ITYSTYLMSCGRSMYQGWKV | 0.372 ± 0.23
27 | PWKWF | -0.224 ± 0.43
28 | SSGFSTMYIK | -0.892 ± 2.1
29 | SECYFSVWFANTALQNRV | 0.034 ± 0.4
30 | HLSVFQLDLTREVANCKSWM | 3.17 ± 0.11
31 | FVTANMTKLFTLWNWRLPGK | 0.583 ± 0.29
32 | VLSPKSNIGDMSLIFMNTAA | 0.54 ± 0.79
33 | YWCMLARSLDDEGLFWRTGG | -0.38 ± 0.33
34 | WCSLRSDW | inactive
35 | HYDSMTAL | 0.491 ± 0.62
36 | RLLRPFGWLANSRLTTVWFH | -0.122 ± 0.68
37 | LRRVMFHRGMCHSVVRNGFG | -1.48 ± 1.6
38 | IGSFDYGSNLGQIYGHNMLK | -0.685 ± 0.6
39 | ACQGWGTWEELGHDERTDLV | 0.817 ± 0.41
40 | RLHMRRRPFVNTHVS | 0.54 ± 0.42
41 | HMAAYKVSGVKSGSPEW | -0.145 ± 0.59
42 | CYGFCNCQYSESSKLLFDAL | -1.11 ± 0.34
43 | TSYLLCMEQYYLKEISCRDS | 0.688 ± 0.38
44 | NSFKCFNDRNEVALMITHRE | -0.526 ± 0.77
45 | KVVDNAYSSDSLYFVGLFFW | 1.25 ± 0.84
46 | FKEMIAWPWLESSSGEFTIV | 0.645 ± 0.62
47 | RMLCYEFCCLNLDVGIYCAS | inactive
48 | SSVARIIWKFCRFSTVGVCF | 0.858 ± 0.59
49 | IGVSVTPLLLKNKRPVTDVM | 1.07 ± 0.84
50 | FHTNMTVSYQTKLVLDRYWN | 3.42 ± 0.14

Row | Substance | amyloid nucleation score
51 | RYTLILH | -0.355 ± 0.75
52 | TSKSTLYSECVMWPVDPEPT | 0.273 ± 0.58
53 | PGARSLLGSYYV | 0.058 ± 0.84
54 | LVITVYLYVRRDFCFAFGWL | -1.06 ± 1.2
55 | NSRMRFILGTFY | 1.63 ± 0.41
56 | YVEPSF | -0.083 ± 0.97
57 | LIYVLYLY | 0.501 ± 0.55
58 | RVQKNLINDFSESYPLCHWY | -0.553 ± 0.42
59 | VCNIPNFCQKQCLSFTTIRY | 2 ± 0.12
60 | HGYHVHDGALLNQHNIS | 0.004 ± 0.57
61 | EVVKSITRKPNLVWRYLTLD | 0.588 ± 0.44
62 | WSMMCKWMNVERFIYMLKSC | 0.394 ± 1.1
63 | SWSITPNKKFDKTVSFQYHD | inactive
64 | DSRPCGYSRITFVCKGCAPC | 0.53 ± 0.79
65 | DRGDLAFSFSGQRTGGKEPR | -0.219 ± 0.51
66 | TYTPRETTSTCSAYSFYMLK | 1.26 ± 0.15
67 | DFLIAVMEQSMAQFKGHSSD | 0.071 ± 1.2
68 | KCREIALHYPAYIPFVLIAY | -0.031 ± 0.82
69 | YSGHWPWMQ | -1.17 ± 0.74
70 | KCSFNLTLIVF | 1.77 ± 0.15
71 | PAMLPLTAMFLLHGRYVLTP | -0.384 ± 0.8
72 | LPRNYTLLMPAVYIYVLVSW | inactive
73 | VIPVLWAVLWEAIIYEEGGA | 0.778 ± 0.22
74 | VPRYGTLEGANESDLFGW | 0.282 ± 0.78
75 | CTFKAWRLYSVNKDSRIVLK | -0.576 ± 1.1

Row | Substance | amyloid nucleation score
76 | RFILPVVGSSHLINSLADSL | -0.8 ± 1.4
77 | TKVFGRYLVVSGRFCIIEKK | -0.371 ± 0.38
78 | ELSLKVFPTARIKRCMFEPM | 0.838 ± 0.45
79 | IGARQLSFLHSIRTREMRVQ | inactive
80 | VPSLSPFGRKMFHIRSL | inactive
81 | SLLDSEGVRYLIMEL | 0.102 ± 0.4
82 | PLLMGEEFRYSFSLCYNTSS | -0.548 ± 1.7
83 | GAIEASLVYRISNFKAGFAP | 1.91 ± 0.35
84 | VIGSCRTCMS | 0.135 ± 0.3
85 | GSNVSSTM | 0.537 ± 0.51
86 | RTSPPFNTVYYTGEYEIIEI | -0.353 ± 0.54
87 | IGRMIRVCYVVCYEVDMTTS | 0.725 ± 0.47
88 | FQSDYRRRMFVMSD | -1.03 ± 1.4
89 | SGMVLNNQSS | -0.763 ± 0.79
90 | LLGRLVQCCRPWY | -1.17 ± 2.7
91 | RHWDIRSGHNLWQMVG | -0.55 ± 0.38
92 | RLNLSLSVR | 0.517 ± 0.55
93 | NEWKSLSINEMRGSMTINNS | 1.44 ± 0.12
94 | TRFNFMGLYNLRMVN | -0.777 ± 1.2
95 | AYLVPGQYVSPSFRFLTKNE | 0.215 ± 0.68
96 | SMVAPRPANVRVRLVGRGST | 0.354 ± 0.51
97 | IDCIWGLCNWFHSLVMCVHS | inactive
98 | VRTLRTLAGLRRLLINKS | -0.137 ± 0.54
99 | LFVHFLTLSVISHYPRGN | inactive
100 | GLNDYIKVFLYFDSVNRYLD | -0.694 ± 1.1

Row | Substance | amyloid nucleation score
101 | WRMCSHCVLPHSMFSDSNTV | -1.03 ± 1.3
102 | SFRCMEYSWGDWVINPPYLS | 0.234 ± 0.62
103 | PCPSINWLMIINNR | 7.743 ± 0.051
104 | LFRRRKITTVYIDKNAMLTS | inactive
105 | FGMSCRVELDSDRARTTPWP | 0.181 ± 0.64
106 | TGRRIVGYDCLNRSCMYICV | -0.321 ± 0.25
107 | ICWLC | 6.912 ± 0.055
108 | SDRGSKPMSVYNLRC | 0.305 ± 0.75
109 | NRIMY | -0.09 ± 0.2
110 | KIICFRLKSPLVWKMYDKTG | -0.699 ± 0.32
111 | LPLGYRLLAQPCPESSRTPA | 0.001 ± 0.53
112 | TSFMEIVVLDAVGRQRRSSV | -0.106 ± 0.49
113 | VPNEYGNSEVRLLDLLGDLE | -0.435 ± 0.36
114 | VDWSVAWHWLLSSD | 0.484 ± 0.49
115 | QHTFQAMISKSNVSEMSPGT | -0.174 ± 0.59
116 | SLTCWG | 0.436 ± 0.33
117 | TCHLIL | -0.872 ± 0.34
118 | AGRIETIEIGSSCLSVCGGY | 0.328 ± 0.58
119 | TFVLRCFSRCDGAITFQTRP | 1.14 ± 0.2
120 | LFDNFIAHMGCSRIPYDSHS | -0.086 ± 0.3
121 | VKCPVGDDHWGSRGDASVIT | -0.004 ± 0.8
122 | DCCKLTDQQWDVIHAGIWGG | 1.55 ± 0.69
123 | ALAWWVLFL | 0.132 ± 1
124 | MKIVNVHAWATQLARGDICE | 0.745 ± 0.83
125 | FFTCNGWAGS | -0.614 ± 0.38

Row | Substance | amyloid nucleation score
126 | SHFFLIT | -0.48 ± 1.5
127 | ITAFKRAKRSAGCW | -0.034 ± 0.25
128 | SCDVTILGYLAMMKLDVMWV | -0.074 ± 0.34
129 | PDSFCFTMHLRKDEMMTSCK | -0.053 ± 1
130 | GKRGSTQDEAKR | inactive
131 | VCAQFSRGRIFTAIVIGWTQ | 0.857 ± 0.64
132 | EPAFL | 0.229 ± 0.42
133 | LWRRWNCFT | inactive
134 | ISWMLLVLSFSMTVLNIRWN | -0.199 ± 0.33
135 | IEWRVKLRLLRCQYID | -0.507 ± 0.34
136 | WNVDVGSLC | inactive
137 | VQYNLTCNYY | 4.01 ± 0.14
138 | VILSYCLIFLK | -0.647 ± 0.48
139 | YFIDLISWL | 0.198 ± 0.56
140 | GNWYLCTGF | 1.58 ± 0.1
141 | FKVPVYGWLWETTVVSADTS | -0.131 ± 0.37
142 | ARTMKDYPLRTYVYYAPAGY | 0.453 ± 0.75
143 | SLFAQKS | -0.273 ± 0.32
144 | GSTRVRTCGRKLMCALS | 0.835 ± 0.24
145 | CFCFLRFYRLQPNAQLDSKS | 1.69 ± 0.31
146 | GGYVWVTTSGPVFIQVMNMW | 8.136 ± 0.06
147 | WLSPQG | 0.453 ± 0.62
148 | SLNGMTYVSMIVRSD | 1.41 ± 0.39
149 | PFTVTKFRSYEISVINLPNW | 1.34 ± 0.11
150 | KTMMIGFNNMWGGVQ | 3.34 ± 0.21

Row | Substance | amyloid nucleation score
151 | FELLMDIDC | 0.139 ± 0.83
152 | FAQWDNLSARSLKGDQRESA | 0.302 ± 0.52
153 | MSMYYISSCIISLSQVGMYV | 1.26 ± 0.38
154 | FVQFTCSIRDYCA | 0.033 ± 0.97
155 | QVYLILTEMRMTF | 1.4 ± 0.13
156 | MSVNSRNMNKYLFWNKL | -0.029 ± 0.3
157 | LVMYCWRTYVYLRTSRGYDA | 0.259 ± 0.61
158 | VAWLNCSTKVGL | -0.053 ± 1.3
159 | TGPVLTPKSCYFGHINSSCF | -0.009 ± 0.29
160 | NSILVNVYDKTFRVGLRGRN | inactive
161 | FISNVWPYGESRFEESNPCL | 0.094 ± 0.52
162 | RPRICLWWSLNQMDVWNRDR | 2.17 ± 0.31
163 | GMRLGTRSLQHQRWCAMLYL | -1.37 ± 1.8
164 | VMLGGSPHMPIAN | 0.047 ± 0.41
165 | IGMVSVSC | 0.037 ± 1.2
166 | LVQVWLKN | 0.43 ± 0.34
167 | KRLLFKYRSVNRHTYLFIPV | -0.616 ± 0.28
168 | YCDNDSYH | 1.42 ± 0.44
169 | RNYTVKKMNLC | inactive
170 | ISSTGKIFGFFPLCSYMN | 0.041 ± 0.47
171 | TKGAFKVEKWSLSE | -0.115 ± 0.23
172 | SLRLARNGYIYAICRFLCYS | -1.15 ± 2.7
